The values that follow come from patent US20140105889A1 (published 2014).

B1: GpH7-B3 D270A / GpL16-k0 (antibody, human IgG1)
heavy: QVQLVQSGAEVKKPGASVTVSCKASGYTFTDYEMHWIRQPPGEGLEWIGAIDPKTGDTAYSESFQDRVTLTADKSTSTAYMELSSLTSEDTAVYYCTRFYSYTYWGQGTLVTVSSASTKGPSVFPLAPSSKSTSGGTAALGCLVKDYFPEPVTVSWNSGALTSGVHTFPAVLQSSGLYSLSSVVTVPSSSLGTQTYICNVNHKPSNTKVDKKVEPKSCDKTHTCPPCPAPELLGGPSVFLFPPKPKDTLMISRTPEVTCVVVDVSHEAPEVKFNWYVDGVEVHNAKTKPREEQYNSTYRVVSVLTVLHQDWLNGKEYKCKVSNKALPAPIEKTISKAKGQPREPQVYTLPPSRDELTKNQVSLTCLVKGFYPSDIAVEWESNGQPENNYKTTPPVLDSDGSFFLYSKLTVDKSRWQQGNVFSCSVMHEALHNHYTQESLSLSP
light: DIVMTQSPLSLPVTPGEPASISCQASESLVHSNRNTYLHWYLQKPGQSPQLLIYKVSNRFSGVPDRFSGSGSGTDFTLKISRVEAEDVGVYYCSQNTHVPPTFGQGTKVEIE
notes: B3 variant: anti-glypican-3 IgG1 (constant region B3 = G1d with K439E) with one substitution, EU numbering; also called B3 variant D270A; copies: 2 + 2
B2: GpH7-B3 P271W / GpL16-k0 (antibody, human IgG1)
heavy: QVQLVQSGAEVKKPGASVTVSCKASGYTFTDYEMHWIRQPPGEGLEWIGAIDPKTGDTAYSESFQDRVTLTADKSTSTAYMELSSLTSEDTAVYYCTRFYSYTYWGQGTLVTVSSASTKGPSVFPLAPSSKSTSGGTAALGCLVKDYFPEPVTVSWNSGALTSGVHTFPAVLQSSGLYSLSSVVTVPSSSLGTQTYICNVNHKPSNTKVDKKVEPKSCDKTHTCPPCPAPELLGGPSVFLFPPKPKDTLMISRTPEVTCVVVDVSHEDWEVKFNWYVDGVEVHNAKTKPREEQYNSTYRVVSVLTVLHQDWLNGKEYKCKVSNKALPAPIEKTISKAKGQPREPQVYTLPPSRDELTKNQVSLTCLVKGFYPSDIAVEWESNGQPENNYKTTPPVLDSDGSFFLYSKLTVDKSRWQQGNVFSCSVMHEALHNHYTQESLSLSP
light: DIVMTQSPLSLPVTPGEPASISCQASESLVHSNRNTYLHWYLQKPGQSPQLLIYKVSNRFSGVPDRFSGSGSGTDFTLKISRVEAEDVGVYYCSQNTHVPPTFGQGTKVEIE
notes: B3 variant: anti-glypican-3 IgG1 (constant region B3 = G1d with K439E) with one substitution, EU numbering; also called B3 variant P271W; copies: 2 + 2
B3: GpH7-B3 D270M / GpL16-k0 (antibody, human IgG1)
heavy: not shown
light: DIVMTQSPLSLPVTPGEPASISCQASESLVHSNRNTYLHWYLQKPGQSPQLLIYKVSNRFSGVPDRFSGSGSGTDFTLKISRVEAEDVGVYYCSQNTHVPPTFGQGTKVEIE
notes: B3 variant: anti-glypican-3 IgG1 (constant region B3 = G1d with K439E) with one substitution, EU numbering; also called B3 variant D270M; copies: 2 + 2
B4: GpH7-B3 D270S / GpL16-k0 (antibody, human IgG1)
heavy: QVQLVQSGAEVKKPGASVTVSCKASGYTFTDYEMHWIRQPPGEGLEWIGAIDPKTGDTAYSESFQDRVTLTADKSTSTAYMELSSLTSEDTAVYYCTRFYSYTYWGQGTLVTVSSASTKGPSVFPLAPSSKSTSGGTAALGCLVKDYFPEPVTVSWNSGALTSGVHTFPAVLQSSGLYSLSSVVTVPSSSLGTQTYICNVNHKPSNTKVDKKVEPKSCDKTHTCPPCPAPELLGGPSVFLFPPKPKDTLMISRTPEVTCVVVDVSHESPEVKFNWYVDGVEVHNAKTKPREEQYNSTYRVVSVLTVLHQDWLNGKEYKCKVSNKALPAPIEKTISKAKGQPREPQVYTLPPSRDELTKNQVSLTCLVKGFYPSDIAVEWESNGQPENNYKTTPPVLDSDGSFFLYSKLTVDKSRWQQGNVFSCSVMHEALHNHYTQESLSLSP
light: DIVMTQSPLSLPVTPGEPASISCQASESLVHSNRNTYLHWYLQKPGQSPQLLIYKVSNRFSGVPDRFSGSGSGTDFTLKISRVEAEDVGVYYCSQNTHVPPTFGQGTKVEIE
notes: B3 variant: anti-glypican-3 IgG1 (constant region B3 = G1d with K439E) with one substitution, EU numbering; also called B3 variant D270S; copies: 2 + 2
B5: GpH7-B3 D270F / GpL16-k0 (antibody, human IgG1)
heavy: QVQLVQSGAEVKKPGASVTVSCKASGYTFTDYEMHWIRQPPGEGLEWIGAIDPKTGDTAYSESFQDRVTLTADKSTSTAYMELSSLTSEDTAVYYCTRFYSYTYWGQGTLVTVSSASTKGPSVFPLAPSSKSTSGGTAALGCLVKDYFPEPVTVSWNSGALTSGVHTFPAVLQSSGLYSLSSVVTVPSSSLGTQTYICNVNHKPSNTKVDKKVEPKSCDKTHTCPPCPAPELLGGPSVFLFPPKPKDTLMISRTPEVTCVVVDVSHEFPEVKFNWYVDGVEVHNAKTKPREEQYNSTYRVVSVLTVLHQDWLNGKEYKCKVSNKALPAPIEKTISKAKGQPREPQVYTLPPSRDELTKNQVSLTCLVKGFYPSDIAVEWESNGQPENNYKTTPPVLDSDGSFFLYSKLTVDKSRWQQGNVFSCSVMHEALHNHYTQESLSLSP
light: DIVMTQSPLSLPVTPGEPASISCQASESLVHSNRNTYLHWYLQKPGQSPQLLIYKVSNRFSGVPDRFSGSGSGTDFTLKISRVEAEDVGVYYCSQNTHVPPTFGQGTKVEIE
notes: B3 variant: anti-glypican-3 IgG1 (constant region B3 = G1d with K439E) with one substitution, EU numbering; also called B3 variant D270F; copies: 2 + 2
B6: GpH7-B3 P271T / GpL16-k0 (antibody, human IgG1)
heavy: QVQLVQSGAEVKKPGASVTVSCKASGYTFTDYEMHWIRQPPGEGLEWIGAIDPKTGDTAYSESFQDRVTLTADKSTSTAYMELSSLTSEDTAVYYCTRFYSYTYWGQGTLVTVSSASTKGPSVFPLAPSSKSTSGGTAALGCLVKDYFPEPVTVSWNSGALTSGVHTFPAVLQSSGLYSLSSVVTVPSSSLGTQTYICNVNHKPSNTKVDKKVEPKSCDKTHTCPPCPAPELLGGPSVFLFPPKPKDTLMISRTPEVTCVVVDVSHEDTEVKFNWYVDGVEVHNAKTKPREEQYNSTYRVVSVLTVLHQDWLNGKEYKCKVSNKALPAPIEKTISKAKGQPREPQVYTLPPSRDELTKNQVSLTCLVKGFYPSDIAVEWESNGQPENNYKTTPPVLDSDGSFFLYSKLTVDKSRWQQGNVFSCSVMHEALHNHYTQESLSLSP
light: DIVMTQSPLSLPVTPGEPASISCQASESLVHSNRNTYLHWYLQKPGQSPQLLIYKVSNRFSGVPDRFSGSGSGTDFTLKISRVEAEDVGVYYCSQNTHVPPTFGQGTKVEIE
notes: B3 variant: anti-glypican-3 IgG1 (constant region B3 = G1d with K439E) with one substitution, EU numbering; also called B3 variant P271T; copies: 2 + 2
B7: GpH7-B3 Q295D / GpL16-k0 (antibody, human IgG1)
heavy: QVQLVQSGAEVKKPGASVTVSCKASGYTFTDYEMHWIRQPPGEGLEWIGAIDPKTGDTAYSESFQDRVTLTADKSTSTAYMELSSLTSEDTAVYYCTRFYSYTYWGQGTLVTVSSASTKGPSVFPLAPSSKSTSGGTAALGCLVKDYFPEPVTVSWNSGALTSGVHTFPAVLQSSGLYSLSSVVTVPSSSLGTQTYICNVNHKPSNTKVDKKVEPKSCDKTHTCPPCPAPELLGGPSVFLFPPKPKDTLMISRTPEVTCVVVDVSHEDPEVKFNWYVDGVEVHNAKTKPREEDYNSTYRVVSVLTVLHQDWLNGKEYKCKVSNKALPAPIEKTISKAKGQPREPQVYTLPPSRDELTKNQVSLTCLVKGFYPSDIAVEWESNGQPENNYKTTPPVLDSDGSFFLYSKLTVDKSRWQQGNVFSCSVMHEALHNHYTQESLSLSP
light: DIVMTQSPLSLPVTPGEPASISCQASESLVHSNRNTYLHWYLQKPGQSPQLLIYKVSNRFSGVPDRFSGSGSGTDFTLKISRVEAEDVGVYYCSQNTHVPPTFGQGTKVEIE
notes: B3 variant: anti-glypican-3 IgG1 (constant region B3 = G1d with K439E) with one substitution, EU numbering; also called B3 variant Q295D; copies: 2 + 2
B8: GpH7-B3 D270L / GpL16-k0 (antibody, human IgG1)
heavy: not shown
light: DIVMTQSPLSLPVTPGEPASISCQASESLVHSNRNTYLHWYLQKPGQSPQLLIYKVSNRFSGVPDRFSGSGSGTDFTLKISRVEAEDVGVYYCSQNTHVPPTFGQGTKVEIE
notes: B3 variant: anti-glypican-3 IgG1 (constant region B3 = G1d with K439E) with one substitution, EU numbering; also called B3 variant D270L; copies: 2 + 2
B9: GpH7-B3 P271F / GpL16-k0 (antibody, human IgG1)
heavy: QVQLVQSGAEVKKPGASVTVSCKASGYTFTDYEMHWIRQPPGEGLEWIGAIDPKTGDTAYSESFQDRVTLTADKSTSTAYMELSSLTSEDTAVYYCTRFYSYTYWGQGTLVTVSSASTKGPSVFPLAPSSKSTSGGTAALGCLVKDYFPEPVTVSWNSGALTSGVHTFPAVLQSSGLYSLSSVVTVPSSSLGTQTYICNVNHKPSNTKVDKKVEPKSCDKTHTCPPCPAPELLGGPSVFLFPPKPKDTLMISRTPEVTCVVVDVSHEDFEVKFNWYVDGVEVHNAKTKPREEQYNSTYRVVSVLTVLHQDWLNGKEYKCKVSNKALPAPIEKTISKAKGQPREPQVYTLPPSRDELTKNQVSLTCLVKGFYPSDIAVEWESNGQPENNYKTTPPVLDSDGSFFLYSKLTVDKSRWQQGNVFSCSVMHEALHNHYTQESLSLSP
light: DIVMTQSPLSLPVTPGEPASISCQASESLVHSNRNTYLHWYLQKPGQSPQLLIYKVSNRFSGVPDRFSGSGSGTDFTLKISRVEAEDVGVYYCSQNTHVPPTFGQGTKVEIE
notes: B3 variant: anti-glypican-3 IgG1 (constant region B3 = G1d with K439E) with one substitution, EU numbering; also called B3 variant P271F; copies: 2 + 2
B10: GpH7-B3 P271R / GpL16-k0 (antibody, human IgG1)
heavy: not shown
light: DIVMTQSPLSLPVTPGEPASISCQASESLVHSNRNTYLHWYLQKPGQSPQLLIYKVSNRFSGVPDRFSGSGSGTDFTLKISRVEAEDVGVYYCSQNTHVPPTFGQGTKVEIE
notes: B3 variant: anti-glypican-3 IgG1 (constant region B3 = G1d with K439E) with one substitution, EU numbering; also called B3 variant P271R; copies: 2 + 2
B11: GpH7-B3 D270Q / GpL16-k0 (antibody, human IgG1)
heavy: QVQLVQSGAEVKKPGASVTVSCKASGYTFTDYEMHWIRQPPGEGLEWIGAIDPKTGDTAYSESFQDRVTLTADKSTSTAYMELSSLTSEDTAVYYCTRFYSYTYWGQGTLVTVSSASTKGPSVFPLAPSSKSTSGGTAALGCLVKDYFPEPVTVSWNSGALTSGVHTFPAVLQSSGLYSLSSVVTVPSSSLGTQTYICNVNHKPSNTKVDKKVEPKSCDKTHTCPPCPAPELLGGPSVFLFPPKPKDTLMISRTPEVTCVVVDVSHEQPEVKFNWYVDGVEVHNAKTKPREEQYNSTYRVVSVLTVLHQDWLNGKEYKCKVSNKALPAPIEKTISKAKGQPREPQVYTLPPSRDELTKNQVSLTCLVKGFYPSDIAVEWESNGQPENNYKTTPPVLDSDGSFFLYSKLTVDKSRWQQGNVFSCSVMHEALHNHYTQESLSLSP
light: DIVMTQSPLSLPVTPGEPASISCQASESLVHSNRNTYLHWYLQKPGQSPQLLIYKVSNRFSGVPDRFSGSGSGTDFTLKISRVEAEDVGVYYCSQNTHVPPTFGQGTKVEIE
notes: B3 variant: anti-glypican-3 IgG1 (constant region B3 = G1d with K439E) with one substitution, EU numbering; also called B3 variant D270Q; copies: 2 + 2
B12: GpH7-B3 Q295F / GpL16-k0 (antibody, human IgG1)
heavy: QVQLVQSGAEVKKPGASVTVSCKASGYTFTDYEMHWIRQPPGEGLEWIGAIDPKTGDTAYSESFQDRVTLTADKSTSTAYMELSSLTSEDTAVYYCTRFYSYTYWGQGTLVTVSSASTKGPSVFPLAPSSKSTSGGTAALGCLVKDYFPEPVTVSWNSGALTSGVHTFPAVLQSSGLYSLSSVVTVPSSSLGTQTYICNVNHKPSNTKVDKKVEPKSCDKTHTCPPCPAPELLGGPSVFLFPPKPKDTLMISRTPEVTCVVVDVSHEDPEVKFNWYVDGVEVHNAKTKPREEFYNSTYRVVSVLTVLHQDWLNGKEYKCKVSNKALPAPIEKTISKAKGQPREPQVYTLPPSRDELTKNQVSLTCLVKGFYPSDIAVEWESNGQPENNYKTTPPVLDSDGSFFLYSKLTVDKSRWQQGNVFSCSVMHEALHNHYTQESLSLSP
light: DIVMTQSPLSLPVTPGEPASISCQASESLVHSNRNTYLHWYLQKPGQSPQLLIYKVSNRFSGVPDRFSGSGSGTDFTLKISRVEAEDVGVYYCSQNTHVPPTFGQGTKVEIE
notes: B3 variant: anti-glypican-3 IgG1 (constant region B3 = G1d with K439E) with one substitution, EU numbering; also called B3 variant Q295F; copies: 2 + 2
B13: GpH7-B3 P271Y / GpL16-k0 (antibody, human IgG1)
heavy: not shown
light: DIVMTQSPLSLPVTPGEPASISCQASESLVHSNRNTYLHWYLQKPGQSPQLLIYKVSNRFSGVPDRFSGSGSGTDFTLKISRVEAEDVGVYYCSQNTHVPPTFGQGTKVEIE
notes: B3 variant: anti-glypican-3 IgG1 (constant region B3 = G1d with K439E) with one substitution, EU numbering; also called B3 variant P271Y; copies: 2 + 2
B14: GpH7-B3 D270N / GpL16-k0 (antibody, human IgG1)
heavy: not shown
light: DIVMTQSPLSLPVTPGEPASISCQASESLVHSNRNTYLHWYLQKPGQSPQLLIYKVSNRFSGVPDRFSGSGSGTDFTLKISRVEAEDVGVYYCSQNTHVPPTFGQGTKVEIE
notes: B3 variant: anti-glypican-3 IgG1 (constant region B3 = G1d with K439E) with one substitution, EU numbering; also called B3 variant D270N; copies: 2 + 2
B15: GpH7-B3 P271S / GpL16-k0 (antibody, human IgG1)
heavy: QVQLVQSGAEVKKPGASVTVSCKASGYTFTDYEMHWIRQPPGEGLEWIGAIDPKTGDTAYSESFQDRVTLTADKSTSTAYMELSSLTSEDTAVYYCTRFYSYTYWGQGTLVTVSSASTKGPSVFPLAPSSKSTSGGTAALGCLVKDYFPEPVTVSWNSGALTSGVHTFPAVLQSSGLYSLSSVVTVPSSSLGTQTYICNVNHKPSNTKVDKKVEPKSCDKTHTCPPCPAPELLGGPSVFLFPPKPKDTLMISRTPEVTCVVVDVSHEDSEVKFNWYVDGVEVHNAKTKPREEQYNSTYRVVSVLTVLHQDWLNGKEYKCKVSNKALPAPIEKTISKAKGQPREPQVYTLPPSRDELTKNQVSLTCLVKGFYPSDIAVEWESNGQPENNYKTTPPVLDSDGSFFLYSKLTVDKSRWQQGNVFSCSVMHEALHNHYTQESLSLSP
light: DIVMTQSPLSLPVTPGEPASISCQASESLVHSNRNTYLHWYLQKPGQSPQLLIYKVSNRFSGVPDRFSGSGSGTDFTLKISRVEAEDVGVYYCSQNTHVPPTFGQGTKVEIE
notes: B3 variant: anti-glypican-3 IgG1 (constant region B3 = G1d with K439E) with one substitution, EU numbering; also called B3 variant P271S; copies: 2 + 2

The target of the assay is T1, human FcγRIIIa(F) (human, UniProt P08637 17-208, limits assumed).
T1 construct: also called FcgRIIIaF; FcγRIIIa allotype F158
T1 sequence (P08637 other isoform, or with tags, fused parts or gaps limits assumed): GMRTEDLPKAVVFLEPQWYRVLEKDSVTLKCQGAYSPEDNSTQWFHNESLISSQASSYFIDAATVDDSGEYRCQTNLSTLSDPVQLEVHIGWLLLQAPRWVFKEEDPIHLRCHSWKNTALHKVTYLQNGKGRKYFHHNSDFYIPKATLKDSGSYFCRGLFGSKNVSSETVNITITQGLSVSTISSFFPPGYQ
Put plainly: SPR (Biacore), antibody captured, FcγR as analyte.
B1: the “relative binding activity (amount bound / amount bound by GpH7-B3/GpL16-k0 x100)” value is 23 % of GpH7-B3/GpL16-k0.

Consider B2, for which the “relative binding activity (amount bound / amount bound by GpH7-B3/GpL16-k0 x100)” value was 57 % of GpH7-B3/GpL16-k0.

On to B3, for which the “relative binding activity (amount bound / amount bound by GpH7-B3/GpL16-k0 x100)” value was 29 % of GpH7-B3/GpL16-k0.

B4: the “relative binding activity (amount bound / amount bound by GpH7-B3/GpL16-k0 x100)” value is 17 % of GpH7-B3/GpL16-k0.

Consider B5, for which the “relative binding activity (amount bound / amount bound by GpH7-B3/GpL16-k0 x100)” value was 12 % of GpH7-B3/GpL16-k0.

For the molecule B6, the “relative binding activity (amount bound / amount bound by GpH7-B3/GpL16-k0 x100)” value was 31 % of GpH7-B3/GpL16-k0.

With B7, the “relative binding activity (amount bound / amount bound by GpH7-B3/GpL16-k0 x100)” value was 64 % of GpH7-B3/GpL16-k0.

Regarding B8, the “relative binding activity (amount bound / amount bound by GpH7-B3/GpL16-k0 x100)” value was 33 % of GpH7-B3/GpL16-k0.

In the case of B9, the “relative binding activity (amount bound / amount bound by GpH7-B3/GpL16-k0 x100)” value was 39 % of GpH7-B3/GpL16-k0.

B10: the “relative binding activity (amount bound / amount bound by GpH7-B3/GpL16-k0 x100)” value was 76 % of GpH7-B3/GpL16-k0.

As to B11, the “relative binding activity (amount bound / amount bound by GpH7-B3/GpL16-k0 x100)” value is 49 % of GpH7-B3/GpL16-k0.

In the case of B12, the “relative binding activity (amount bound / amount bound by GpH7-B3/GpL16-k0 x100)” value is 46 % of GpH7-B3/GpL16-k0.

As for B13, the “relative binding activity (amount bound / amount bound by GpH7-B3/GpL16-k0 x100)” value is 33 % of GpH7-B3/GpL16-k0.

With B14, the “relative binding activity (amount bound / amount bound by GpH7-B3/GpL16-k0 x100)” value was 13 % of GpH7-B3/GpL16-k0.

Consider B15, for which the “relative binding activity (amount bound / amount bound by GpH7-B3/GpL16-k0 x100)” value was 62 % of GpH7-B3/GpL16-k0.
